From paper PMC9482650, “Quantitative fragmentomics allow affinity mapping of interactomes” (Nature Communications, 2022)

T1: RHPN1, Q8TCX5
T1 sequence (Q8TCX5 508-602, limits assumed, looked up): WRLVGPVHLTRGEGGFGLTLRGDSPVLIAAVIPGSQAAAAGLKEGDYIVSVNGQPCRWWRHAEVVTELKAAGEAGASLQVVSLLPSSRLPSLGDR

T2: FRMPD1, Q5SYB0
T2 sequence (Q5SYB0 52-145, limits assumed, looked up): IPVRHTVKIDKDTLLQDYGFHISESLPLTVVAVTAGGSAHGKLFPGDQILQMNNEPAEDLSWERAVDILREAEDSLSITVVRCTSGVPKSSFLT

T3: SNTG2, Q9NY99
T3 sequence (Q9NY99 68-166, limits assumed, looked up): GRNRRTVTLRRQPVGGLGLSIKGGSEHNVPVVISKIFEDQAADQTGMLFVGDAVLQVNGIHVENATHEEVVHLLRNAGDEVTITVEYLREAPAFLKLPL

T4: SNTA1, Q13424
T4 sequence (Q13424 82-180, limits assumed, looked up): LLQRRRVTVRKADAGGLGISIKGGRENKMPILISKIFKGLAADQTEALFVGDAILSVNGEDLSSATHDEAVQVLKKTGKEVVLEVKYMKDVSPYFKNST

T5: HTRA3, P83110
T5 sequence (P83110 354-453, limits assumed, looked up): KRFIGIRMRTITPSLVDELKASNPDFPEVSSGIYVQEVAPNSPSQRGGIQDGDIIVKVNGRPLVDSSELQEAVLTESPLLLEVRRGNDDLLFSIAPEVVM

T6: DVL3, Q92997
T6 sequence (Q92997 244-331, limits assumed, looked up): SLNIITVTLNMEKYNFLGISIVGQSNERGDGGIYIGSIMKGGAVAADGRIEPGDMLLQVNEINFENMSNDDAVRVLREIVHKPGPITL

T7: TX1BP3, O14907
T7 sequence (O14907 10-122, limits assumed, looked up): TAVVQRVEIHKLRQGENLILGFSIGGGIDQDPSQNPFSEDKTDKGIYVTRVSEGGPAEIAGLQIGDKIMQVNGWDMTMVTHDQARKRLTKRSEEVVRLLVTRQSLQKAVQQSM

T8: PTPN13_1, Q12923
T8 sequence (Q12923 1088-1188, limits assumed, looked up): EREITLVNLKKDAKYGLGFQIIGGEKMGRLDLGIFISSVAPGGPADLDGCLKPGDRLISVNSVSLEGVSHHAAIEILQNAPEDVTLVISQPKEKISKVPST

T9: PDZD7_3, Q9H5P4
T9 sequence (Q9H5P4 857-944, limits assumed, looked up): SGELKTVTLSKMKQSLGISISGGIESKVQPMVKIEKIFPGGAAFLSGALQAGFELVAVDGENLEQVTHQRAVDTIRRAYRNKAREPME

T10: LIN7C, Q9NUP9
T10 sequence (Q9NUP9 88-185, limits assumed, looked up): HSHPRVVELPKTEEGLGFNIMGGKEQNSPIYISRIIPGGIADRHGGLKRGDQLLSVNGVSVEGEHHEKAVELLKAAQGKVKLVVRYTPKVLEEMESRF

T11: TJP3_3, O95049
T11 sequence (O95049 375-456, limits assumed, looked up): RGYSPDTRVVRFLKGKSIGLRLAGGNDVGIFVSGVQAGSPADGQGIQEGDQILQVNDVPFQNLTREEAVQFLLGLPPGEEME

T12: APBA3_1, O96018
T12 sequence (O96018 389-490, limits assumed, looked up): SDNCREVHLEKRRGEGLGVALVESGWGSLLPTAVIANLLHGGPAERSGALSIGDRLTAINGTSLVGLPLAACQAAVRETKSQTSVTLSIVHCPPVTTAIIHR

B1: ITK, Q08881 (peptide)
chain: QLAEIAESGL
B2: ADGRG1, Q9Y653 (peptide)
chain: SSGSTSSSRI
B3: APPL1, Q9UKG1 (peptide)
chain: EGGKKRESEA
B4: EZH1, Q92800 (peptide)
chain: VGIERETDVL
B5: DUSP10, Q9Y6W6 (peptide)
chain: PKLMGVETVV
B6: GAGE12J, A6NER3 (peptide)
chain: PEEGKKQSQC

What follows are binders tested against T1, RHPN1, Q8TCX5 (assay: holdup assay). Details: plain residues with an end cap or a label only (N-terminal biotin on a linker: ado-ado).
Design: key: below the threshold = too weak to quantify, mostly under pKd 3.1 to 4

pKd | Binder
3.83 | B1
3.93 | B2
below the threshold | B3
below the threshold | B4
4.42 | B5
below the threshold | B6

What follows are binders tested against T2, FRMPD1, Q5SYB0 (assay: holdup assay). Details: plain residues with an end cap or a label only (N-terminal biotin on a linker: ado-ado).
Design: key: below the threshold = too weak to quantify, mostly under pKd 3.1 to 4

pKd | Binder
below the threshold | B1
below the threshold | B2
below the threshold | B3
below the threshold | B4
below the threshold | B5
below the threshold | B6

These binders were tested against Inadl_4, Q8NI35 (assay: holdup assay). Details: plain residues with an end cap or a label only (N-terminal biotin on a linker: ado-ado).
Sequence of Inadl_4, Q8NI35 (Q8NI35 547-651): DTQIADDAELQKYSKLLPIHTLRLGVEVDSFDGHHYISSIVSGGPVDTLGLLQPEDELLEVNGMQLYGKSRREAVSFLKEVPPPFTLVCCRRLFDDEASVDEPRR
Design: key: below the threshold = too weak to quantify, mostly under pKd 3.1 to 4

pKd | Binder
below the threshold | B1
below the threshold | B2
below the threshold | B3
below the threshold | B4
below the threshold | B5
below the threshold | B6

Each binder was assayed against GORASP1, Q9BQQ3 (assay: holdup assay). Details: plain residues with an end cap or a label only (N-terminal biotin on a linker: ado-ado).
Sequence of GORASP1, Q9BQQ3 (Q9BQQ3 1-208): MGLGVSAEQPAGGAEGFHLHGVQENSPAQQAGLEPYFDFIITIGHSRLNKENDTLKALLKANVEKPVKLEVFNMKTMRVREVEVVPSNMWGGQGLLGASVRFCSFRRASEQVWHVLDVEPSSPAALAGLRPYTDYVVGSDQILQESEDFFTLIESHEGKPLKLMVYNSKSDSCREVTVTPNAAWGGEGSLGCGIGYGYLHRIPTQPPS
Design: key: below the threshold = too weak to quantify, mostly under pKd 3.1 to 4

pKd | Binder
3.53 | B1
below the threshold | B2
below the threshold | B3
below the threshold | B4
4.36 | B5
below the threshold | B6

These binders were tested against T3, SNTG2, Q9NY99 (assay: holdup assay). Details: plain residues with an end cap or a label only (N-terminal biotin on a linker: ado-ado).
Design: key: below the threshold = too weak to quantify, mostly under pKd 3.1 to 4

pKd | Binder
3.82 | B1
3.68 | B2
below the threshold | B3
below the threshold | B4
4.51 | B5
3.51 | B6

These binders were tested against T4, SNTA1, Q13424 (assay: holdup assay). Details: plain residues with an end cap or a label only (N-terminal biotin on a linker: ado-ado).
Design: key: below the threshold = too weak to quantify, mostly under pKd 3.1 to 4

pKd | Binder
3.63 | B1
below the threshold | B2
below the threshold | B3
4.63 | B4
5.13 | B5
below the threshold | B6

The binders below were run against ARHGEF12, Q9NZN5-2 (assay: holdup assay). Details: plain residues with an end cap or a label only (N-terminal biotin on a linker: ado-ado).
Sequence of ARHGEF12, Q9NZN5-2 (Q9NZN5 other isoform, or with tags, fused parts or gaps): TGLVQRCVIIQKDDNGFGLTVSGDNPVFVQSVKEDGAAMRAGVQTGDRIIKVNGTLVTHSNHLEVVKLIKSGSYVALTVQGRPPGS
Design: key: below the threshold = too weak to quantify, mostly under pKd 3.1 to 4

pKd | Binder
below the threshold | B1
4.04 | B2
below the threshold | B3
below the threshold | B4
3.74 | B5
3.84 | B6

What follows are binders tested against T5, HTRA3, P83110 (assay: holdup assay). Details: plain residues with an end cap or a label only (N-terminal biotin on a linker: ado-ado).
Design: key: below the threshold = too weak to quantify, mostly under pKd 3.1 to 4

pKd | Binder
below the threshold | B1
below the threshold | B2
below the threshold | B3
below the threshold | B4
below the threshold | B5
below the threshold | B6

Each binder was assayed against Inadl_5, Q8NI35 (assay: holdup assay). Details: plain residues with an end cap or a label only (N-terminal biotin on a linker: ado-ado).
Sequence of Inadl_5, Q8NI35 (Q8NI35 673-780): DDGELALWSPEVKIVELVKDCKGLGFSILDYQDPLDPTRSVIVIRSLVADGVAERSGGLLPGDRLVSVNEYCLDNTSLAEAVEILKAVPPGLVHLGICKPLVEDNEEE
Design: key: below the threshold = too weak to quantify, mostly under pKd 3.1 to 4

pKd | Binder
3.58 | B1
below the threshold | B2
below the threshold | B3
below the threshold | B4
3.56 | B5
below the threshold | B6

Each binder was assayed against FRMPD2_1, Q68DX3 (assay: holdup assay). Details: plain residues with an end cap or a label only (N-terminal biotin on a linker: ado-ado).
Sequence of FRMPD2_1, Q68DX3 (Q68DX3 770-861): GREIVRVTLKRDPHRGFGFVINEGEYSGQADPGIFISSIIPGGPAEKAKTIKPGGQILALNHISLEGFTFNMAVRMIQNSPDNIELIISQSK
Design: key: below the threshold = too weak to quantify, mostly under pKd 3.1 to 4

pKd | Binder
below the threshold | B1
below the threshold | B2
below the threshold | B3
below the threshold | B4
below the threshold | B5
below the threshold | B6

What follows are binders tested against T6, DVL3, Q92997 (assay: holdup assay). Details: plain residues with an end cap or a label only (N-terminal biotin on a linker: ado-ado).
Design: key: below the threshold = too weak to quantify, mostly under pKd 3.1 to 4

pKd | Binder
below the threshold | B1
below the threshold | B2
below the threshold | B3
below the threshold | B4
below the threshold | B5
below the threshold | B6

What follows are binders tested against DLG2_3, Q15700 (assay: holdup assay). Details: plain residues with an end cap or a label only (N-terminal biotin on a linker: ado-ado).
Design: key: below the threshold = too weak to quantify, mostly under pKd 3.1 to 4

pKd | Binder
below the threshold | B1
3.73 | B2
3.73 | B3
below the threshold | B4
4.21 | B5
3.61 | B6

These binders were tested against T7, TX1BP3, O14907 (assay: holdup assay). Details: plain residues with an end cap or a label only (N-terminal biotin on a linker: ado-ado).
Design: key: below the threshold = too weak to quantify, mostly under pKd 3.1 to 4

pKd | Binder
below the threshold | B1
below the threshold | B2
below the threshold | B3
below the threshold | B4
4.15 | B5
below the threshold | B6

These binders were tested against GRIP2_3, Q9C0E4 (assay: holdup assay). Details: plain residues with an end cap or a label only (N-terminal biotin on a linker: ado-ado).
Sequence of GRIP2_3, Q9C0E4 (Q9C0E4 238-339): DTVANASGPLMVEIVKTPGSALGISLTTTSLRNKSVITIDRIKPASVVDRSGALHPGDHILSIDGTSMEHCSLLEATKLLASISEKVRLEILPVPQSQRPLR
Design: key: below the threshold = too weak to quantify, mostly under pKd 3.1 to 4

pKd | Binder
3.53 | B1
below the threshold | B2
below the threshold | B3
below the threshold | B4
below the threshold | B5
below the threshold | B6

What follows are binders tested against FRMPD2_2, Q68DX3 (assay: holdup assay). Details: plain residues with an end cap or a label only (N-terminal biotin on a linker: ado-ado).
Sequence of FRMPD2_2, Q68DX3 (Q68DX3 944-1038): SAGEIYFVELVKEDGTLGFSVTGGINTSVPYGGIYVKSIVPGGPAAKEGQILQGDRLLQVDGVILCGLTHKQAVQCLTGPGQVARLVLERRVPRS
Design: key: below the threshold = too weak to quantify, mostly under pKd 3.1 to 4

pKd | Binder
3.52 | B1
below the threshold | B2
below the threshold | B3
below the threshold | B4
4.1 | B5
below the threshold | B6

The binders below were run against PTPN3, P26045 (assay: holdup assay). Details: plain residues with an end cap or a label only (N-terminal biotin on a linker: ado-ado).
Sequence of PTPN3, P26045 (P26045 505-587): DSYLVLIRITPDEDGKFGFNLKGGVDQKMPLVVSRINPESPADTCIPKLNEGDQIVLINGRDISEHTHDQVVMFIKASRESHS
Design: key: below the threshold = too weak to quantify, mostly under pKd 3.1 to 4

pKd | Binder
4.89 | B1
3.86 | B2
4.14 | B3
3.52 | B4
4.66 | B5
3.91 | B6

These binders were tested against FRMPD3, Q5JV73 (assay: holdup assay). Details: plain residues with an end cap or a label only (N-terminal biotin on a linker: ado-ado).
Sequence of FRMPD3, Q5JV73 (Q5JV73 12-100): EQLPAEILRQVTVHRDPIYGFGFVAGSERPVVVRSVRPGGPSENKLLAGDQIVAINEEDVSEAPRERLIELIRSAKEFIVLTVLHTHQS
Design: key: below the threshold = too weak to quantify, mostly under pKd 3.1 to 4

pKd | Binder
below the threshold | B1
below the threshold | B2
below the threshold | B3
below the threshold | B4
below the threshold | B5
below the threshold | B6

Each binder was assayed against T8, PTPN13_1, Q12923 (assay: holdup assay). Details: plain residues with an end cap or a label only (N-terminal biotin on a linker: ado-ado).
Design: key: below the threshold = too weak to quantify, mostly under pKd 3.1 to 4

pKd | Binder
below the threshold | B1
below the threshold | B2
below the threshold | B3
below the threshold | B4
3.48 | B5
below the threshold | B6

What follows are binders tested against T9, PDZD7_3, Q9H5P4 (assay: holdup assay). Details: plain residues with an end cap or a label only (N-terminal biotin on a linker: ado-ado).
Design: key: below the threshold = too weak to quantify, mostly under pKd 3.1 to 4

pKd | Binder
below the threshold | B1
4.3 | B2
3.69 | B3
below the threshold | B4
5.19 | B5
below the threshold | B6

These binders were tested against PDZRN4_1, Q6ZMN7 (assay: holdup assay). Details: plain residues with an end cap or a label only (N-terminal biotin on a linker: ado-ado).
Sequence of PDZRN4_1, Q6ZMN7 (Q6ZMN7 213-318): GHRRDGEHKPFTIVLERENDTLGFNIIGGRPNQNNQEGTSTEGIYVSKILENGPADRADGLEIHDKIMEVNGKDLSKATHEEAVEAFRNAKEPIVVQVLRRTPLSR
Design: key: below the threshold = too weak to quantify, mostly under pKd 3.1 to 4

pKd | Binder
3.91 | B1
below the threshold | B2
below the threshold | B3
below the threshold | B4
3.7 | B5
below the threshold | B6

Each binder was assayed against MAGI2_4, Q86UL8 (assay: holdup assay). Details: plain residues with an end cap or a label only (N-terminal biotin on a linker: ado-ado).
Sequence of MAGI2_4, Q86UL8 (Q86UL8 772-865): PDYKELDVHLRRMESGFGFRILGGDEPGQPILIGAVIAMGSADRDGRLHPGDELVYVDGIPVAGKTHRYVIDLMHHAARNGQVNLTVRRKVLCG
Design: key: below the threshold = too weak to quantify, mostly under pKd 3.1 to 4

pKd | Binder
below the threshold | B1
3.77 | B2
below the threshold | B3
below the threshold | B4
4.14 | B5
below the threshold | B6

Each binder was assayed against T10, LIN7C, Q9NUP9 (assay: holdup assay). Details: plain residues with an end cap or a label only (N-terminal biotin on a linker: ado-ado).
Design: key: below the threshold = too weak to quantify, mostly under pKd 3.1 to 4

pKd | Binder
below the threshold | B1
below the threshold | B2
below the threshold | B3
below the threshold | B4
3.81 | B5
below the threshold | B6

Each binder was assayed against T11, TJP3_3, O95049 (assay: holdup assay). Details: plain residues with an end cap or a label only (N-terminal biotin on a linker: ado-ado).
Design: key: below the threshold = too weak to quantify, mostly under pKd 3.1 to 4

pKd | Binder
below the threshold | B1
below the threshold | B2
below the threshold | B3
below the threshold | B4
below the threshold | B5
below the threshold | B6

These binders were tested against MAST1, Q9Y2H9 (assay: holdup assay). Details: plain residues with an end cap or a label only (N-terminal biotin on a linker: ado-ado).
Sequence of MAST1, Q9Y2H9 (Q9Y2H9 962-1065): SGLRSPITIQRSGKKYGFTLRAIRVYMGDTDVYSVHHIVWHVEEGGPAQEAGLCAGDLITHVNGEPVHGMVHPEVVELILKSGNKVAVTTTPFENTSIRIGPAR
Design: key: below the threshold = too weak to quantify, mostly under pKd 3.1 to 4

pKd | Binder
4.54 | B1
4 | B2
4.12 | B3
below the threshold | B4
4.58 | B5
3.6 | B6

The binders below were run against T12, APBA3_1, O96018 (assay: holdup assay). Details: plain residues with an end cap or a label only (N-terminal biotin on a linker: ado-ado).
Design: key: below the threshold = too weak to quantify, mostly under pKd 3.1 to 4

pKd | Binder
below the threshold | B1
below the threshold | B2
below the threshold | B3
below the threshold | B4
below the threshold | B5
below the threshold | B6
